# Primed or numbered codes have the meaning given here. Where no end group is shown, it is not given here. [ ]: non-standard residue; d: D form. The star is where a group is joined. Biotin = O=C1N[C@H]2[C@H](CS[C@H]2CCCCC(=O)*)N1; Lys(N3) = [N-]=[N+]=NCCCC[C@H](N)C(=O)O; dPra = C#CC[C@@H](N)C(=O)O; PEG5″ = not defined here; PEG5′ = PEG5 linker
# T1: GFP-tagged E17K PH Domain protein (Homo sapiens (Human), UniProt P31749 1-124)
# T1 construct: Cloned from pUNO-hAKT1 and mutated; also called GFP-E17K PHD; E17K mutant GFP-PH domain; not shown: GFP of the TOPO C-terminal GFP mammalian vector
# T1 chain: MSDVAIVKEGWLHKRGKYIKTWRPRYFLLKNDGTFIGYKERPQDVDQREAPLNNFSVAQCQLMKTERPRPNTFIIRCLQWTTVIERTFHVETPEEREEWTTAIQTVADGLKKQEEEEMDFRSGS
# B1: triligand 9 (ivdae-yleaf-yksy, form used in fluorescence polarization) (peptide)
# peptide 1: [dI][dV][dD][dA][dE]
# peptide 2: [dY][dL][dE][dA][dF]
# peptide 3: [dY][dK][dS][dY]
# modifications: not fully specified (N-terminus, C-terminus); also: fluorescence polarization label, not described, triazole to a chain's N/C-terminus, triazole to a chain's N/C-terminus
# B2: yleaf(SEQ ID NO: 43)-Tz-yksy(SEQ ID NO: 76) biligand, N-terminal PEG5-biotin (peptide)
# peptide 1: [dY][dL][dE][dA][dF]
# peptide 2: [dY][dK][dS][dY]
# modifications: not fully specified (N-terminus, C-terminus, bridges); also: triazole to a chain's N/C-terminus
# B3: PEG5-TAT-Cy5 (peptide)
# peptide: [PEG5″]YGRKKRRQRR-Cy5
# notes: Control without the yleaf anchor; also called blank of PEG5-TAT-Cy5; control with no anchor ligand peptide
# B4: triligand candidate iryrn (iryrn-yleaf-yksy) (peptide)
# peptide 1: [dI][dR][dY][dR][dN]
# peptide 2: [Lys(N3)][dY][dL][dE][dA][dF][dPra]
# peptide 3: [dY][dK][dS][dY]
# modifications: not fully specified (N-terminus, C-terminus); also: triazole to a chain's N/C-terminus, triazole to a chain's N/C-terminus
# B5: Biotin-PEG5-ivdae(SEQ ID NO: 78)-yleaf(SEQ ID NO: 43)-yksy(SEQ ID NO: 76) triligand (peptide)
# peptide 1: [dI][dV][dD][dA][dE]
# peptide 2: [Lys(N3)][dY][dL][dE][dA][dF][dPra]
# peptide 3: [dY][dK][dS][dY]
# modifications: not fully specified (N-terminus, C-terminus); also: triazole to a chain's N/C-terminus, triazole to a chain's N/C-terminus
# Key:
# [1] = target: E17K GST-PH Domain (Homo sapiens (Human)) (UniProt P31749); assay: ELISA, biotinylated ligand on streptavidin plate, GST-PH Domain titrated, anti-GST detection
# [2] = target: full length Akt1E17K (Homo sapiens (Human)) (UniProt P31749); assay: fluorescence polarization in solution, full-length Akt1 titrated
# [3] = target: T1, GFP-tagged E17K PH Domain protein; assay: confocal imaging of HEK-293T cells expressing GFP-PH Domain
# [4] = target: E17K GST-PH Domain (Homo sapiens (Human)) (UniProt P31749); assay: ELISA: biotinylated triligand candidate on streptavidin plate, GST-PH Domain titrated, anti-GST-HRP detection
# [5] = target: full length Akt1E17K (Homo sapiens (Human)) (UniProt P31749); assay: fluorescence polarization KD values compared
# [6] = target: 6His-PEG5-Mut 33mer Fragment (E17K 33-mer epitope without alkyne click handle); assay: fluorescence polarization, in solution
# [7] = target: 6His-PEG5-WT 33mer Fragment (wildtype 33-mer epitope without alkyne click handle); assay: fluorescence polarization, in solution
# [8] = target: full length Akt1E17K (Homo sapiens (Human)) (UniProt P31749); assay: fluorescence polarization, in solution
# Chain of 6His-PEG5-Mut 33mer Fragment (E17K 33-mer epitope without alkyne click handle) (peptide, as listed by the source E17K E17K): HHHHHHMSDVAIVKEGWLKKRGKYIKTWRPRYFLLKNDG
# Chain of 6His-PEG5-WT 33mer Fragment (wildtype 33-mer epitope without alkyne click handle) (peptide, as listed by the source): as the sequence (peptide, as listed by the source E17K E17K) above, with K23E counted along it
binder,measurement,setting,value
{Biotin-PEG5′}-[dY][dL][dE][dA][dF] (not fully specified (C-terminus)) [Biotin-PEG5-yleaf(SEQ ID NO: 43)-Pra anchor ligand],EC50,[1],61 nM
B1,EC50 (read off the curve),[2],100 nM
B2,EC50,[1],19 nM
B3,binding result,[3],no binding (tested: 50 nM)
B4,EC50 (read off the curve),[4],10 nM
[dY][dL][dE][dA][dF] (also: fluorescence polarization label not described) [yleaf (SEQ ID NO: 43) anchor ligand 4],selectivity for E17K relative to WT (fold (E17K:WT)),[5],10
same,Kd,[6],328 nM
same,Kd,[7],2800 nM
same,Kd,[8],54 nM
B5,EC50,[1],45 nM
